Laboratory results taken from patent US20100197582A1.

Target: human GHR stably expressed in human 293 cells (human) (UniProt P10912)
Assay: cell-based or functional assay

Sequence of UniProt P10912 (P10912 19-638): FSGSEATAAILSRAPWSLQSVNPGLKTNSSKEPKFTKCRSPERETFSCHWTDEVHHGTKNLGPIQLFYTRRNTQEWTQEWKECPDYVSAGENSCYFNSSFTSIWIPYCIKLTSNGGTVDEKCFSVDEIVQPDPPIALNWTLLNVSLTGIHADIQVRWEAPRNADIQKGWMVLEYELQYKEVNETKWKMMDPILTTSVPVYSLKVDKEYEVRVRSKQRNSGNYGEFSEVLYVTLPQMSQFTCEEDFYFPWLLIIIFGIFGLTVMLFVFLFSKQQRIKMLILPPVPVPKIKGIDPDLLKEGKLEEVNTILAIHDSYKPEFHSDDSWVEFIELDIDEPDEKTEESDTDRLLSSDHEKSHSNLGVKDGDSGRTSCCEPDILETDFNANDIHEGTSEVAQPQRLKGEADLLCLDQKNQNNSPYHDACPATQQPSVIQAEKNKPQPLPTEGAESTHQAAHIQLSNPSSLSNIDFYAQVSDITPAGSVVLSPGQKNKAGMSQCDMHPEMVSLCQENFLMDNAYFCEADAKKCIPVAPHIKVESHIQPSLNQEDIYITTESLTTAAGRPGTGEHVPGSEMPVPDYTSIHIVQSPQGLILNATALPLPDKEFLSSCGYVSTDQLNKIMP

“LR-fusion (human GH linked to the A & B domains of the GHR extracellular domain, exGHR1-238, via a (Gly4Ser)4 linker) (from UniProt P01241 27-217; P10912 1-238)” showed a bioactivity in GH-specific luciferase reporter assay (Stat 5 luciferase reporter), relative to GH of 10% and a concentration giving maximal response, Stat 5 luciferase-reporter assay of 50 to 250 nM.
